Patent US20190345535
Values joined by “and” are separate entries in the source; they are usually repeats but may differ in a detail not shown here. Identical values can stand only once.

B1: human plasmin (Sigma) (protein)
chain: KVYLSECKTGNGKNYRGTMSKTKNGITCQKWSSTSPHRPRFSPATHPSEGLEENYCRNPDNDPQGPWCYTTDPEKRYDYCDILECEEECMHCSGENYDGKISKTMSGLECQAWDSQSPHAHGYIPSKFPNKNLKKNYCRNPDRELRPWCFTTDPNKRWELCDIPRCTTPPPSSGPTYQCLKGTGENYRGNVAVTVSGHTCQHWSAQTPHTHNRTPENFPCKNLDENYCRNPDGKRAPWCHTTNSQVRWEYCKIPSCDSSPVSTEQLAPTAPPELTPVVQDCYHGDGQSYRGTSSTTTTGKKCQSWSSMTPHRHQKTPENYPNAGLTMNYCRNPDADKGPWCFTTDPSVRWEYCNLKKCSGTEASVVAPPPVVLLPDVETPSEEDCMFGNGKGYRGKRATTVTGTPCQDWAAQEPHRHSIFTPETNPRAGLEKNYCRNPDGDVGGPWCYTTNPRKLYDYCDVPQCAAPSFDCGKPQVEPKKCPGRVVGGCVAHPHSWPWQVSLRTRFGMHFCGGTLISPEWVLTAAHCLEKSPRPSSYKVILGAHQEVNLEPHVQEIEVSRLFLEPTRKDIALLKLSSPAVITDKVIPACLPSPNYVVADRTECFITGWGETQGTFGAGLLKEAQLPVIENKVCNRYEFLNGRVQSTELCAGHLAGGTDSCQGDSGGPLVCFEKDKYILQGVTSWGLGCARPNKPGVYVRVSRFVTWIEGVMRNN
B2: bovine plasmin (Sigma) (protein)
chain: RIYLLECKTGNGQTYRGTTAETKSGVTCQKWSATSPHVPKFSPEKFPLAGLEENYCRNPDNDENGPWCYTTDPDKRYDYCDIPECEDKCMHCSGENYEGKIAKTMSGRDCQAWDSQSPHAHGYIPSKFPNKNLKMNYCRNPDGEPRPWCFTTDPQKRWEFCDIPRCTTPPPSSGPKYQCLKGTGKNYGGTVAVTESGHTCQRWSEQTPHKHNRTPENFPCKNLEENYCRNPNGEKAPWCYTTNSEVRWEYCTIPSCESSPLSTERMDVPVPPEQTPVPQDCYHGNGQSYRGTSSTTITGRKCQSWSSMTPHRHLKTPENYPNAGLTMNYCRNPDADKSPWCYTTDPRVRWEFCNLKKCSETPEQVPAAPQAPGVENPPEADCMIGTGKSYRGKKATTVAGVPCQEWAAQEPHQHSIFTPETNPQSGLERNYCRNPDGDVNGPWCYTMNPRKPFDYCDVPQCESSFDCGKPKVEPKKCSGRIVGGCVSKPHSWPWQVSLRRSSRHFCGGTLISPKWVLTAAHCLDNILALSFYKVILGAHNEKVREQSVQEIPVSRLFREPSQADIALLKLSRPAIITKEVIPACLPPPNYMVAARTECYITGWGETQGTFGEGLLKEAHLPVIENKVCNRNEYLDGRVKPTELCAGHLIGGTDSCQGDSGGPLVCFEKDKYILQGVTSWGLGCARPNKPGVYVRVSPYVPWIEETMRRN

Legend:
[1] = biological target: GFP^2-plas1-RLuc2 fusion protein (BRET^2 plasmin sensor)
[2] = biological target: GFP^2-Pflu3-RLuc2 fusion protein (Pflu sensor 3)
[3] = biological target: GFP^2-Pflu-H3-RLuc2 fusion protein
[4] = biological target: GFP^2-Pflu-H4-RLuc2 fusion protein
[5] = biological target: GFP^2-Pflu-H2-RLuc2 fusion protein
[6] = biological target: GFP^2-Pflu-H1-RLuc2 fusion protein

| Protein | Linear response, BRET^2, raw milk, one-step pre-treatment protocol [1] | Linear response, BRET^2, raw milk, one-step pre-treatment with low power sonication [1] | Linear range (10%-90% BRET^2 response), 50% full fat UHT milk [2] | Plasmin response (%), BRET^2, 1 nM Bovine plasmin in UHT milk [3] [%] | Plasmin response (%), BRET^2, 1 nM Bovine plasmin in UHT milk [4] [%] | Plasmin response (%), BRET^2, 1 nM Bovine plasmin in UHT milk [5] [%] | Plasmin response (%), BRET^2, 1 nM Bovine plasmin in UHT milk [6] [%] |
| --- | --- | --- | --- | --- | --- | --- | --- |
| B1 | between 1.6 nM (90%) and 128 nM (10%) plasmin | linear between 5.5 nM (90%) and 107 nM (10%) | 452 nM and 3620 nM | – | – | – | – |
| B2 | – | – | – | 0.9 | 6.3 | 7.9 | 4.9 |
